Results published in a protein production outcome set (Wang et al. 2014).

Assay: label from the status in PepcDB records

Row | Sequence | protein production
1 | MVAQLPEPIKIVRRAGDVRIHTFISAFTDDNIANATHIIEGRNKLVLVDGQFLVPYALQFRAYADSLGKEIDRIYLSHRHPDHWFGLGAAFSDIPIHALSETKEFLRQHGQDSLNDHWKLGNLAPKTLVIPEKTVRAGHEIIDGVKYVFDEVVDTEIDFLLTIGLPDVGVFIAQDLIYSGTHLYLTKYMEHWIGVLQGMLLSDYELFLPGHGFPADKNEVAKNIEYLSVAIEAAGHGLTNDAFKRFLLERFPERKCPGIFDIYIPRLFDNASEF | failed
2 | MVAVENVVFVFVAGLLTALATGLGAIPFFLVDEFSDRWNVLLWGLASGIMVAASLFGLVREGLAYGSPVLLVPGVLAGVGLVAVAHELLDDFDQSPKQFEQADFTKLLLILGILTVHSFPEGVAVGVSFAELGLEAATPESAVGIVGVSVPLLAVFMTVAISIHNIPEGTAIAIPLRSLGVSEWKMVWWAVFSSLPQPVGAVIAYYFVTLAKAFLPFGFGFAAGAMVYLVLTEFVPEALEYGDGLPGGGKRELLTGIAVGVLAMVPLAFV | failed
3 | MVAVRSAHLNTEGEFVPDAWIASLGIASQQSCERLAETWRYCEQQTQNQPDASLLLWRGIEMVEILSTLSMDNDSMRAALLFPLADANVVDEATLEAAFGKNIVDLVHGVRDMDAIRQLKATQNDSDASEQVDNIRRMLLAMVEDFRCVVIKLAERIAHLREVKDAPEEERVLAAKECTNIYAPLANRLGIGQLKWELEDFCFRYLHPDEYKKIAKLLHERRIDRAQYIDDFVKTLRDAMKEEGVQAEIYGRPKHIYSIWRKMQKKALSFDELFDVRAVRIVVERLQDCYGALGIVHTHYRHMPDEFDDYVANPKPNGYQSIHTVVLGPSGKTLEIQIRTRQMHEDAELGVAAHWKYKEGTAVGGRSGYEGRIAWLRKLLAWQEEVSDSNDVLDEVRSQVFDDRVYVFTPKGDVVDLPAGSTPLDFAYHIHSDIGHRCIGAKIGGRIVPFTYQLHMGDQIEIITQKQPNPSRDWLNPNLGYITTSRGRSKIQNWFRKQDRDKNILAGRQILDDELAHLGVSLKAAEKLLLPRYNVNSLDELLAAIGGGDVRLNQMVNFLQSQLKQPSAEELDREALRQLTQKTHQPPARSNNKDNGRVVVEGVGNLMHHIARCCQPIPGDEITGFITRGRGISIHRADCEQLDELRASSPERIVDAVWGESYSSGYSLVVRVIANDRSGLLRDITTILANEKVNVLGVASRSDTKQQLATIDMDIEIYNLQVLGRVLAKLNQLPDVIDARRQQGA | failed
4 | MVDELFCPQCGMLKRRCKCRKRSIRQRNLELLKKVGYKEFLLPLFDTDDEIVLYKVLRPFREKPTEELDFLPSELASCLRKRGIGRLYPFQKEAMIRLMEGRDVVITAPTGFGKTEAFAVPMLWRALHGGKAMVFYPTKALARDQEEKIKFYTSSLGLRAVRFDGDSGREERRAVLSGKCDIILTNPDMVDYHLRNTPAFRRICRELSFIAVDELHTYTGVLGSNMHYLVKRLSRFAEFQIACASATLSNAAEFAEELFDRDFVLVSGEHRKGTLHLIFRYTPSLYSAVREIVTALRNRKIIVFGNSYKSVETINLILRRHGLKSAIHKSGLPKEVREEVEAKFKRGEINIVVSTPTLELGVDIGDVDVVVSELVPYGQMIQRVGRAGRKGQESVGVVILREDDSISTYYRTKPEDYFKEEANGYVERHNEEVMKFQLISMCIEKPVRLEELDRQSAEIMQKLQAQGIVVEREGAFHPTAKAIELSRAFSFRGIGDAVKIYHDGKYIGERALPIAVKELFPGSILVHNGVRYRTVELDLKRLRAEVVELDYGNEITDPLYMTIPRIIEVEDEIEEPVNAVYCSIEINYLVHGYIERDVFDRERKAFHYLDEPVSYTFKTKGFLFSAPFPDPADYEDYYAGSFHALEHVIIETTDAITGGGSREMGGISVPEGDIFVYDASVGGSGLSKLLFKRLRRAFEISKTILESCDCGRVDGCPKCTYSYQCGNNNQPLNRIGALNIAEKVIKGVKRKTDWRKYTDVIEIRYFPLEHHHHHH | failed
5 | MVDQSAVGRRFTPVTAHVEAGRLRYFLDTLGETNPVYRDAAAAKVEGFAAPPVPPTYLFCLEMLDNERPFEFLTALEIDLGRVLHGEQSFTYHAPVMVGDTLTFSPQVTSVTDKKGGAMTLIGVATAVTNQHGVHVADTTRTIVVRNGLEHHHHHH | not failed
6 | MVDVLWDEIQNLELGQDYPTLFIPNEAYVMVEDRNRLSLIARPLLPRVQNFNAVINALPRAWGLTAHVHGRILDATYVQLLFQTEIYLLSVQRREVWLFNNWFVASQRWEAAPSLNFVTTIDLWVQMRGIPILYVFEKTELEIAQELGEIISLDFHDATSTQIAYIRVRVRFGITDRLRFFQRITFESGETALIRFQYERLRRIYSCFRFTHNLNYYPYRQRFQSIDRERAVFRDSVLRSSFNSQSQMTDSSLQVPLHPPPRVPSSGDAITSGIMRVFEVGESSRGVQDGESHNNMNLGESSKRKNLVILQRDKESRQHKQQETEQRMGGILKPPKKR | not failed
7 | MVEFLNKKKKSAQRPINLNGSFIFILILTFEFERRVKVDTADIFQRTMMLIGEDGLKKLSNVNIAVCGLGGVGSFAFEALVRCGIQNFVILDKDRVSVSNLNRQLIATVSNIGKSKVDIAYERALDINPFVNVVKVQKEINPENVEELLGNTKIDYIVDAIDDVSAKIALIKFAISRGIKIISSMGMGNRLNPSLLRISDIYSTKNCPLAKKIRSILRKEGIKKLKVVYSEEKPLKPDYKFLKEKTQKAHVPGSISFVPPVAGFLMAYEVVKDLLGW | failed
8 | MVEIEYRKTRIKLGDTDLVYEPAEDSFLLADAALKDAKPGMRILEIGTGSGFVSSVLLTNLKEIYLVATEINPHAARCAKMNGVKVIRTDLFKGIKSKNPENLFDLILFNPPYLPTSEEEKVPGWLNYAFDGGISGRDTLDRFLDEVRDYLKLGGEILVLISSITGLDAVKAKMEKLGFEVEVVARKKVSFEELMVVKGKLL | failed
9 | MVEIIIPVGPNDKLEWVKRSVNSALLQSVDKVIIYDNSERADIYNFFQELKDKLVYIKDKRMTKVNMARLRNKMLSLASDKYVIMLDSDVVIPKNYSNNIINKLERGVAYTWIHYAYSEEEIEKPLSISENNPNLGCAGLNLEVIKRIGYFDERYERDEDVWLYAKLKKTGYKVEPAEGRCLHLNKVHARLNLSSSVAEARRNLWRSKYDIMLMFDGLTDFTFLTGYSYYGSYYILAILSVIFHPLTFLYLPLIGYGVYYYKGPKKYLLNLIPGLSLAISFPYGLGYNLIQKLK | failed
10 | MVELEKEKIVWIAIILLIIFLVWETLKDLIAPIVFGMAASYIAYPFHIKLSKKVGKRNSVLILSGILSIFSLIFFVGVTLWITDTLKNLYNYLDAFFSWLSTLNVPGFLSSLFDALATSFPEKLRSILLQYTLSLPKLALQLIVFLAVFYATLLNADFLAKEIYELLPLTNRELGEKMIEKVKDTVDAILKTWLFFSVVKGIFLALGFYLFKISNVAGSIAAGVLCIVLELLPVVGGWIMWLAGAIILLRRSMLLAIIFAIYGIITISPIPDYFLKPKFAKERAKVSSVVALVGIFGGWIAFGAVGIILGPIAIGLLLALIDAWREIGTKQPSKAHRSQDA | failed
11 | MVEQRNRGRPAVPDAVVRESIVGAAQRLLSSGGAAAMTMEGVASEAGIAKKTLYRFASGRADLIGLLVESWIAPIFPGFEADPQDAAAALERIVYDIAQAVLSREAVSLFRMLASDADLRNRFLPAYNANGIERSRRELARWLDQQASAGRLPLPIPAERVADLLLSAVIAEPLRQITLGLREPLPAWDIAPRVADAVRLIAPGRER | not failed
12 | MVFFSVVVPTYNRRPILEKCLRALEQQQISAETAIAGYEVVVVDDGSTDGTVDWLKAQASEFPHVRLFEQDHQGPARARNLGVQQAQGDTIIFIDSDLVVTPPFLQAHATGLEKGRQRLGSDRCFTYGAVINTCNFDNPTAEPFKVTDFSNAYFATGNVAIARHWLETAGLFDTAFQLYGWEDLELGVRLKNLGLKLIRCPEAVGYHWHPPFSLEQIPKLIDQESQRGRMGVLFYQKHPTWEVRLMIQMTWLHRLLWGTLSLGGFLNERTLRPLLAWLLKRDRPQLALEIARIFLNWNNVRSVYAAYRESQGLASSLEHHHHHH | not failed
13 | MVFVWFIVAAIVTILTAIKLSNYADTIGEKSTLGGMLVGTIFLAGATSLPEITTTVSAIVLNNPDLAVGNVLGSNMFNLLILATLDLYFRRAQLFRGADTSHFFTASIGLLLAMVTLIAITLRLDVTLLGIGIDMLVLIVVYAFGMKLLSAVRNDPVPESQTIDQEDNRPVKKDVSLRHAMIGFAISAIVIMGAGTLLTVTGDEIAVVTGLGSSFVGSFLIAATTSLPEGVSVFVALRLKNINLALGSVLGSNLFNFLILGVSDILYRPGSIIAAISPVHQLTAAAVGILCLMTLYALLRPAEQSKRMYLMPSLVLIVFYFFSSYLIFVQ | failed
14 | MVGADLLCGSAWVPALWLNLCNLGVVVTLWQLLSRLPRMHRRMRSPHGVLSVFAACAAAAMVAASMAAVMAAPWFEQSLRATWLAWFSEQFSTGVLVLPVLLTAPSVRALVRGGAQPIRLAPLLVLLASLAFSIAFGGPGAIAFPIAALLWCAWTYSPFLVSLLTLTAGSTLIVAVAQNLMHFSVPQSEPGVTTLMSARLGIAMLVLGPLVVACVSQANRSLMARLAHQATVDHLTGVLTRSAFTRRANALLESRQQHAQALPLTLMMLDIDHFKSINDAHGHAVGDQVLRQFASTLQDQLHNDELIARLGGEEFVVILPGLAPERANFTAERLRRAIQDLHVTQADQRLQITVSIGVAGCDADMPAPSLDELLASADQALYRAKARGRNRVEQAEAQRLVI | failed
15 | MVGGGSKHVGEGSKPRATKDDAYAYLRAVRAKFHNDSKKYDDFVAVMTNFKARRIDRDGCIKEVEQLLKGHRDLISGFNAFLPKCLEIKNYYFGAGEDLEVVYTAKRKLLARSVTKRSSSSSSSSSVYFLFRSCEII | failed
16 | MVGGGTVKKDLKKAIQYYVKACELNEMFGCLSLVSNSQINKQKLFQYLSKACELNSGNGCRFLGDFYENGKYVKKDLRKAAQYYSKACGLNDQDGCLILGYKQYAGKGVVKNEKQAVKTFEKACRLGSEDACGILNNY | failed
17 | MVGNKVKSFMLPIISYAVPTFVLVYPSFFVSWLSESMHLAYWEVFAIVALPFLGRIIGSFIYQVFKNSVISYCFPFLGFLVILQNFLGALIFVRFLVGVIFGLLTSYAVESAVKSGRNVLVGFTTAGWPIGWVISYVAYVLLKNWNVINISGILIMLLALFELNGKEFGERSKISVSFPRLTSILIYVSALTPAFILQVMPSFLEVIKLTWLILPSYLLSIPTYVLLPIISEKVGIRKVLVISSIIVILSCVITFLLLPMMVIVFTSIGLGILGITPKYLAIRGEDPKRMGLALNIGSVMGLILPVVYGLMPFSSEFLLSILMVLMILI | failed
18 | MVHASVDIEVQFAIAVVKTLILVLGGIVTYLAYSAYQRTGDETLFQLSVGLALVGVGVLLGGFTFELLDVSLGVGVLIESLFVLAGLSVIAYSLKK | failed
